According to IntAct's records for PubMed 21685874:

B1: SAGA-associated factor 29 (Homo sapiens), Q96ES7 (parent)
chain: MALVSADSRIAELLTELHQLIKQTQEERSRSEHNLVNIQKTHERMQTENKISPYYRTKLRGLYTTAKADAEAECNILRKALDKIAEIKSLLEERRIAAKIAGLYNDSEPPRKTMRRGVLMTLLQQSAMTLPLWIGKPGDKPPPLCGAIPASGDYVARPGDKVAARVKAVDGDEQWILAEVVSYSHATNKYEVDDIDEEGKERHTLSRRRVIPLPQWKANPETDPEALFQKEQLVLALYPQTTCFYRALIHAPPQRPQDDYSVLFEDTSYADGYSPPLNVAQRYVVACKEPKKK

Variants of: B1
Settings: with h31_human H3C1, P68431

Row | effect of a mutation on the interaction | Variant
1 | decreasing interaction | MALVSADSRIAELLTELHQLIKQTQEERSRSEHNLVNIQKTHERMQTENKISPYYRTKLRGLYTTAKADAEAECNILRKALDKIAEIKSLLEERRIAAKIAGLYNDSEPPRKTMRRGVLMTLLQQSAMTLPLWIGKPGDKPPPLCGAIPASGDYVARPGDKVAARVKAVDGDEQWILAEVVSYSHATNKYEVDDIDEEGKERHTLSRRRVIPLPQWKANPETDPEALFQKEQLVLALYPQTACFYRALIHAPPQRPQDDYSVLFEDTSYADGYSPPLNVAQRYVVACKEPKKK [T242A]

Variants of: B1
Settings: with h31_human H3C1, P68431
Remark: another data set of the same source

Row | effect of a mutation on the interaction | Variant
2 | decreasing interaction | MALVSADSRIAELLTELHQLIKQTQEERSRSEHNLVNIQKTHERMQTENKISPYYRTKLRGLYTTAKADAEAECNILRKALDKIAEIKSLLEERRIAAKIAGLYNDSEPPRKTMRRGVLMTLLQQSAMTLPLWIGKPGDKPPPLCGAIPASGDYVARPGDKVAARVKAVDGDEQWILAEVVSYSHATNKYEVDDIDEEGKERHTLSRRRVIPLPQWKANPETDPEALFQKEQLVLALYPQTTCFYRALIHAPPQRPQDDYSVLAEDTSYADGYSPPLNVAQRYVVACKEPKKK [F264A]

Variants of: B1
Settings: with h31_human H3C1, P68431
Remark: another data set of the same source

Row | effect of a mutation on the interaction | Variant
3 | disrupting interaction | MALVSADSRIAELLTELHQLIKQTQEERSRSEHNLVNIQKTHERMQTENKISPYYRTKLRGLYTTAKADAEAECNILRKALDKIAEIKSLLEERRIAAKIAGLYNDSEPPRKTMRRGVLMTLLQQSAMTLPLWIGKPGDKPPPLCGAIPASGDYVARPGDKVAARVKAVDGDEQWILAEVVSYSHATNKYEVDAIDEEGKERHTLSRRRVIPLPQWKANPETDPEALFQKEQLVLALYPQTTCFYRALIHAPPQRPQDDYSVLFEDTSYADGYSPPLNVAQRYVVACKEPKKK [D194A]

Variants of: B1
Settings: with h31_human H3C1, P68431
Remark: another data set of the same source

Row | effect of a mutation on the interaction | Variant
4 | decreasing interaction | MALVSADSRIAELLTELHQLIKQTQEERSRSEHNLVNIQKTHERMQTENKISPYYRTKLRGLYTTAKADAEAECNILRKALDKIAEIKSLLEERRIAAKIAGLYNDSEPPRKTMRRGVLMTLLQQSAMTLPLWIGKPGDKPPPLCGAIPASGDYVARPGDKVAARVKAVDGDEQWILAEVVSYSHATNKYEVDDIDEEGKERHTLSRRRVIPLPQWKANPETDPEALFQKEQLVLALAPQTTCFYRALIHAPPQRPQDDYSVLFEDTSYADGYSPPLNVAQRYVVACKEPKKK [Y238A]

Variants of: B1
Settings: with h31_human H3C1, P68431
Remark: another data set of the same source

Row | effect of a mutation on the interaction | Variant
5 | decreasing interaction | MALVSADSRIAELLTELHQLIKQTQEERSRSEHNLVNIQKTHERMQTENKISPYYRTKLRGLYTTAKADAEAECNILRKALDKIAEIKSLLEERRIAAKIAGLYNDSEPPRKTMRRGVLMTLLQQSAMTLPLWIGKPGDKPPPLCGAIPASGDYVARPGDKVAARVKAVDGDEQWILAEVVSYSHATNKYEVDDIDEEGKERHTLSRRRVIPLPQWKANPETDPEALFQKEQLVLALYPATTCFYRALIHAPPQRPQDDYSVLFEDTSYADGYSPPLNVAQRYVVACKEPKKK [Q240A]

Variants of: B1
Settings: with h31_human H3C1, P68431
Remark: another data set of the same source

Row | effect of a mutation on the interaction | Variant
6 | disrupting interaction | MALVSADSRIAELLTELHQLIKQTQEERSRSEHNLVNIQKTHERMQTENKISPYYRTKLRGLYTTAKADAEAECNILRKALDKIAEIKSLLEERRIAAKIAGLYNDSEPPRKTMRRGVLMTLLQQSAMTLPLWIGKPGDKPPPLCGAIPASGDYVARPGDKVAARVKAVDGDEQWILAEVVSYSHATNKYEVDDIDEEGKERHTLSRRRVIPLPQWKANPETDPEALFQKEQLVLALYPQTTCFARALIHAPPQRPQDDYSVLFEDTSYADGYSPPLNVAQRYVVACKEPKKK [Y245A]

Variants of: B1
Settings: with h31_human H3C1, P68431
Remark: another data set of the same source

Row | effect of a mutation on the interaction | Variant
7 | decreasing interaction | MALVSADSRIAELLTELHQLIKQTQEERSRSEHNLVNIQKTHERMQTENKISPYYRTKLRGLYTTAKADAEAECNILRKALDKIAEIKSLLEERRIAAKIAGLYNDSEPPRKTMRRGVLMTLLQQSAMTLPLWIGKPGDKPPPLCGAIPASGDYVARPGDKVAARVKAVDGDEQWILAEVVSYSHATNKYEVDDIDEEGKERHTLSRRRVIPLPQWKANPETDPEALFQKEQLVLALYPQTTCFYRALIHAPPQRPQDDYSVLFEATSYADGYSPPLNVAQRYVVACKEPKKK [D266A]

Variants of: B1
Settings: with h31_human H3C1, P68431
Remark: another data set of the same source

Row | effect of a mutation on the interaction | Variant
8 | decreasing interaction | MALVSADSRIAELLTELHQLIKQTQEERSRSEHNLVNIQKTHERMQTENKISPYYRTKLRGLYTTAKADAEAECNILRKALDKIAEIKSLLEERRIAAKIAGLYNDSEPPRKTMRRGVLMTLLQQSAMTLPLWIGKPGDKPPPLCGAIPASGDYVARPGDKVAARVKAVDGDEQWILAEVVSYSHATNKYEVDDIAEEGKERHTLSRRRVIPLPQWKANPETDPEALFQKEQLVLALYPQTTCFYRALIHAPPQRPQDDYSVLFEDTSYADGYSPPLNVAQRYVVACKEPKKK [D196A]

Variants of: B1
Settings: with h31_human H3C1, P68431
Remark: another data set of the same source

Row | effect of a mutation on the interaction | Variant
9 | disrupting interaction | MALVSADSRIAELLTELHQLIKQTQEERSRSEHNLVNIQKTHERMQTENKISPYYRTKLRGLYTTAKADAEAECNILRKALDKIAEIKSLLEERRIAAKIAGLYNDSEPPRKTMRRGVLMTLLQQSAMTLPLWIGKPGDKPPPLCGAIPASGDYVARPGDKVAARVKAVDGDEQWILAEVVSYSHATNKYEVDDIAEEGKERHTLSRRRVIPLPQWKANPETDPEALFQKEQLVLALYPQTTCFYRALIHAPPQRPQDDYSVLFEDTSYADGYSPPLNVAQRYVVACKEPKKK [D196A]

Variants of: B1
Settings: with h31_human H3C1, P68431
Remark: another data set of the same source

Row | effect of a mutation on the interaction | Variant
10 | disrupting interaction | MALVSADSRIAELLTELHQLIKQTQEERSRSEHNLVNIQKTHERMQTENKISPYYRTKLRGLYTTAKADAEAECNILRKALDKIAEIKSLLEERRIAAKIAGLYNDSEPPRKTMRRGVLMTLLQQSAMTLPLWIGKPGDKPPPLCGAIPASGDYVARPGDKVAARVKAVDGDEQWILAEVVSYSHATNKYEVDDIREEGKERHTLSRRRVIPLPQWKANPETDPEALFQKEQLVLALYPQTTCFYRALIHAPPQRPQDDYSVLFEDTSYADGYSPPLNVAQRYVVACKEPKKK [D196R]
